Consider 1 substance from US20180125993A1 (BEIJING COTIMES BIOTECH COMPANY LIMITED, priority 2014, published 2018).

The target of data set [1] is T1, DcR1-His (recombinant human TRAIL R3/TNFRSF10C) (Homo sapiens, UniProt O14798).
T1 construct: His; purchased Novoprotein Science
T1 sequence (O14798 26-236): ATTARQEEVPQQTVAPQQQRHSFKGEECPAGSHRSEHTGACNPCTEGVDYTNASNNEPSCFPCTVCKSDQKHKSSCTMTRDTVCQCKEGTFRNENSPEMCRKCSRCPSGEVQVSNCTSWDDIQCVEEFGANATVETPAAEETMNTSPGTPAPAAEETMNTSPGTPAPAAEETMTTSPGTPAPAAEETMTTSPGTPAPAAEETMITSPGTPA
As to the kind of experiment: Binding specificity by chemiluminescent enzyme immunoassay (CLEIA). The note with it: antibody 200, 40 and 8 ng/mL; 1 hour, 37° C. The protocol: (§1) The binding specificity of HuCTB006 was evaluated by chemiluminescent enzyme immunoassay (CLEIA).
(§2) HuCTB006 was diluted into 200, 40 and 8 ng/mL and then added to the wells. After 1 hour incubation in 37° C., the plate was washed. The binding of HuCTB006 with immobilized antigens was detected with HRP labeled secondary antibody and a substrate solution.

Data set [2] addresses T2, DcR2-His (recombinant human TRAIL R4/TNFRSF10D) (Homo sapiens, UniProt Q9UBN6).
T2 construct: His; purchased Sino Biological
T2 sequence (Q9UBN6 56-386): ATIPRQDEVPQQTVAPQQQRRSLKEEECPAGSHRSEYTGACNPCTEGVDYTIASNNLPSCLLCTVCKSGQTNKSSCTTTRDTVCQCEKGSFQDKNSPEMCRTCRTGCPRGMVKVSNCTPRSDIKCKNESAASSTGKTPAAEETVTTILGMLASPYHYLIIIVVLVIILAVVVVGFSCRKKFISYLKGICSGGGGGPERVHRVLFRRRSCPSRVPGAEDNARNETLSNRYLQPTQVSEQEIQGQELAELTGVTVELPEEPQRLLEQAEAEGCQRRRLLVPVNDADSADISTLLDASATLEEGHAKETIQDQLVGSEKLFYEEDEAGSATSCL
Described as above. The settings on record: antibody 200, 40 and 8 ng/mL; 1 hour, 37° C. The protocol: as §1, §2

Data set [3] has as its target T3, OPG-His (recombinant human osteroprotegerin/TNFRSF11B) (Homo sapiens, UniProt O00300).
T3 construct: His; purchased Wuxi Pharmatech Co. Ltd
T3 sequence (O00300 22-401): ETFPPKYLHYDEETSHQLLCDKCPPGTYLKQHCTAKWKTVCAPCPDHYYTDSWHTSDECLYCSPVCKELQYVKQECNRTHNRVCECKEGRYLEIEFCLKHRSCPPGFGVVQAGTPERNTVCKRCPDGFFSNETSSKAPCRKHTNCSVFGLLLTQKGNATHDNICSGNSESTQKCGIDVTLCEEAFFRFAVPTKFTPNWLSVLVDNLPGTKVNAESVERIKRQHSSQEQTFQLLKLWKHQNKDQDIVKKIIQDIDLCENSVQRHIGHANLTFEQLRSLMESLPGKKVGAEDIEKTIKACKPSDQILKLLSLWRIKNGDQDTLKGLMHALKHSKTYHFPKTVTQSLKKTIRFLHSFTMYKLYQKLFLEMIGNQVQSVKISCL
Described as above. The note with it: antibody 200, 40 and 8 ng/mL; 1 hour, 37° C. The protocol: as §1, §2

The test system of data set [4] is 7402. Nature of the data set: In vitro cytotoxic sensitivity of CTB006. The data set is classed as cell-based, human. The note with it: 7402, Liver cancer.
Data set [5] relates to Huh-7. Nature of the data set: In vitro cytotoxic sensitivity of CTB006. The data set is classed as cell-based, human. The note with it: Huh-7, Liver cancer.
For data set [6], the system named is SKOV3. As to the kind of experiment: In vitro cytotoxic sensitivity of CTB006. The data set is classed as cell-based, human. The settings on record: SKOV3, Ovarian cancer.
Data set [7] deals with BT-20. As to the kind of experiment: In vitro cytotoxic sensitivity of CTB006. The note with it: BT-20, Breast cancer. The data set is classed as cell-based, human.
The test system of data set [8] is MDA-MB-361. As to the kind of experiment: In vitro cytotoxic sensitivity of CTB006. The data set is classed as cell-based, human. The settings on record: MDA-MB-361, Breast cancer.
For data set [9], the system named is BGC823. Nature of the data set: In vitro cytotoxic sensitivity of CTB006. The settings on record: BGC823, Stomach cancer. In kind it is cell-based, human.
For data set [10], the system named is NUGC3. As to the kind of experiment: In vitro cytotoxic sensitivity of CTB006. The data set is classed as cell-based, human. The settings on record: NUGC3, Stomach cancer.
Data set [11] relates to N87. As to the kind of experiment: In vitro cytotoxic sensitivity of CTB006. The data set is classed as cell-based, human. The note with it: N87, Stomach cancer.
The test system of data set [12] is HT1080. Nature of the data set: In vitro cytotoxic sensitivity of CTB006. The data set is classed as cell-based, human. The settings on record: HT1080, Fibrosarcoma.
Data set [13] relates to ASPC-1. Nature of the data set: In vitro cytotoxic sensitivity of CTB006. In kind it is cell-based, human. The settings on record: ASPC-1, Pancreatic cancer.
Data set [14] concerns lung cancer, CS225, 1#. Nature of the data set: Patients primary tumor tissue subcutaneous model (Day 37 after treatment). The data set is classed as in vivo, nude mice. The note with it: HuCTB006 10 mg/kg i.v. QW × 5w. From the text: Fresh primary tumor tissues from patients were implanted in NOD/SCID mice's flank, which developed into a primary tumor, which was then transferred to the nude mice's flank to allow the tumor reaching an exponential growth phase, and the tumor was named 1# tumor, and so on. When the tumor volume and number reached passage requirements, they were implanted into the right flank of nude mice. When the tumors' average volumes reached 100-200 mm^3, the mice were grouped.
The bodyweight and major/minor axis of mice were measured twice a week, and Tumor Growth Inhibition (TGI) and tumor volume were calculated same as in 5.1.5. In addition, to evaluate the synergetic effect of drug combination in tumor growth, Jin Zhengjun Q value judgment method was used with the follow formula: Q=Ea+b/(Ea+Eb−Ea×Eb). Ea+b is the inhibition ratio of drug combination, Ea and Eb are the inhibition ratio of each of drug treatment when it is administered alone. […] The animals were monitored, and when the experiments were concluded, mice were sacrificed and tumors were extracted and weighted. All the animal experiments confer to the regulations of animal's welfare and the management of experimental animal usage.
Tumor volumes were represented with average±standard error. Data analysis was done using Spss16.0, One-Way ANOVA, LSD (homogeneity of variance) or Dunnett T3 (non-homogeneity of variance). […] P<0.05 represents significant difference.

Turning to “HuCTB006: Monospecific humanized chimeric monoclonal antibody directed to TRAIL-R2 receptor; heavy chain SEQ ID NO: 14, light chain SEQ ID NO: 12”, the “cross-reaction with coated antigen” value in [1], in data set [2] and in [3] was “no cross-reaction” each time. Also, the “In vitro cytotoxic sensitivity of CTB006” value in data set [4] was “Non-responder”; in [5], “Non-responder”; in [6], “Non-responder”; in [7], “Non-responder”; in data set [8] it was “Non-responder”; in [9] it was “Partial-responder”. For the same substance, the “In vitro cytotoxic sensitivity of CTB006” value was “Partial-responder” in data set [10], “Non-responder” in data set [11], “Non-responder” in data set [12] and “Non-responder” in data set [13]. Moreover, in [14], the “T/C % (Calculated using tumor volumes)” value is 79.86%. For the same substance, in data set [14], the “Time of tumor volume changed significantly” value is 16. Further, the “Tumor Volume Mean ± SEM” value in [14] is recorded as 0.86 ± 0.19 cm^3. The “Tumor weight Mean ± SEM” value in data set [14] was 0.89 ± 0.23 g. Also, the “TGI (Calculated using tumor volumes)” value in data set [14] (10 mg/kg) was 19.65%. Besides, in [14] (10 mg/kg), the “TGI (Calculated using tumor weight)” value is reported as −25.23%.
